According to doi:10.1101/2022.06.24.497440:

Key:
[1] = target: fluorescently labeled CaV1.2 IQ peptide Y1657D (UniProt P15381); assay: fluorescence polarisation
[2] = target: CaV1.2 IQ motif peptide F1658A (UniProt P15381); assay: ITC
[3] = target: CaV1.2 IQ motif peptide F1658D (UniProt P15381); assay: ITC
[4] = target: CaV1.2 IQ motif peptide I1654A (UniProt P15381); assay: ITC
[5] = target: CaV1.2 IQ motif peptide Y1649A (UniProt P15381); assay: ITC
[6] = target: CaV1.2 IQ motif peptide Y1657D (UniProt P15381); assay: ITC
[7] = target: fluorescently labeled CaV1.2 IQ peptide K1662E (UniProt P15381); assay: fluorescence polarisation
[8] = target: fluorescently labeled CaV1.2 IQ peptide, wildtype (UniProt P15381); assay: fluorescence polarisation

calmodulin, wild type, Ca2+-free (apoCaM) (from UniProt P0DP23 1-149) (natural protein)
Kd [1]: 60 µM

calmodulin mutant D21A/D23A/D25A/E32Q/D57A/D59A/N61A/E68Q (CaM12’), Ca2+ bound at EF3 and EF4 (from UniProt P0DP23 1-149) (natural protein)
Kd [2]: 0.032 µM | Kd [3]: 4 µM | Kd [4]: 0.06 µM | Kd [5]: 0.026 µM | Kd [6]: 8 µM | Kd [7]: < 0.1 µM | Kd [8]: < 0.1 µM
